Assay results published in the supplement of paper PMC10126150.
± gives the standard deviation of the averaged measurements.
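Note: ATP exposure 15 min at 22 °C before imaging.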

What follows are sequences tested on ATP (assay: switch fluorescence ratio, 500 uM ATP over buffer (Cy3 cluster intensity, sum of 5 cycles each) (fold (ratio)); higher = stronger signal-on switching upon ATP binding; sequences stand for … in TCGTCGGCAGCGTCAGATGTGTATAAGAGACAGTTTTTTTTTTTTTTTTTTTTTTTTT…TC). Conditions: aptamer strand: ATP DNA aptamer (quencher-CACCTGGGGGAGTATTGCGGAGGAAGG + anchor), 100 nM annealed; ATP concentration: 500 uM.
Summary of the method: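 Values give the fluorescence ratio for each switch-domain sequence, averaged from per-cluster ratios of summed target-cycle to summed buffer-cycle Cy3 intensity. The Cy3-labelled switching-strand clusters sat on a modified Illumina MiSeq flow-cell, were annealed to 100 nM quencher-labelled ATP aptamer, and were imaged in selection buffer, then after 15 min with 500 uM ATP at 22 °C. Five cycles ran with NaOH stripping and re-annealing between them, and clusters outside 100-1000 RFU were excluded.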
CTATTTTTTT showed a switch fluorescence ratio of 1.01 ± 0.02. With CTCAATTCAA the switch fluorescence ratio was 1.02 ± 0.015. CTCAGCAGGG was tested, and the switch fluorescence ratio was 1.73 ± 0.17. CTCAGGGTTT gave a switch fluorescence ratio of 1.04 ± 0.023. CTCAGTAATT showed a switch fluorescence ratio of 1.38 ± 0.046. In the case of CTCAGTAGGC, the switch fluorescence ratio is reported as 1.13 ± 0.066. CTCAGTCGGG gave a switch fluorescence ratio of 0.991 ± 0.01. For CTCATACCTG, the switch fluorescence ratio was 1.05 ± 0.021. Work on CTCATAGGGG yielded a switch fluorescence ratio of 1.07 ± 0.024. Sequence CTCATGAAAA has a switch fluorescence ratio of 1.02 ± 0.02. For CTCATGGGTT, the switch fluorescence ratio was 1.02 ± 0.0011. CTCATGGTTG showed a switch fluorescence ratio of 0.9638 ± 0.007. CTCATTGTTG showed a switch fluorescence ratio of 0.992 ± 0.014. Sequence CTCCCCAGGG has a switch fluorescence ratio of 2.689 ± 0.013. CTCCCCCGTC was tested, and the switch fluorescence ratio was 1.46 ± 0.37. For CTCCCGTCCA, the switch fluorescence ratio was 1.28 ± 0.085. Sequence CTCCGGCGCA has a switch fluorescence ratio of 4.19 ± 0.76. In the case of CTCCGGCTGG, the switch fluorescence ratio is reported as 1.19 ± 0.14. CTCCGGGCCT showed a switch fluorescence ratio of 1.42 ± 0.12. In the case of CTCCTAAAGA, the switch fluorescence ratio is reported as 1.05 ± 0.013. CTCCTACACC gave a switch fluorescence ratio of 1.25 ± 0.041. CTCGAAGTGG gave a switch fluorescence ratio of 0.996 ± 0.021. With CTCGAGGGGG the switch fluorescence ratio was 1.18 ± 0.34. CTCGAGTAGT gave a switch fluorescence ratio of 1.04 ± 0.02. CTCGATAAAA was tested, and the switch fluorescence ratio was 0.975 ± 0.022. CTCGATGCGT gave a switch fluorescence ratio of 1.04 ± 0.013. CTCGATGTGA showed a switch fluorescence ratio of 1.05 ± 0.071. Sequence CTCGCAGGCT has a switch fluorescence ratio of 1.25 ± 0.037. With CTCGCTGGTA the switch fluorescence ratio was 1.003 ± 0.0081. CTCGGATAAG gave a switch fluorescence ratio of 0.9922 ± 0.007. CTCGGATGTC was tested, and the switch fluorescence ratio was 0.991 ± 0.022. In the case of CTCGGCTGCG, the switch fluorescence ratio is reported as 0.969 ± 0.084. Work on CTCGGCTGTA yielded a switch fluorescence ratio of 1.08 ± 0.019. Sequence CTCGGGAGAA has a switch fluorescence ratio of 1.016 ± 0.0039. CTCGGGGGGT showed a switch fluorescence ratio of 1.01 ± 0.014. With CTCGGGGTGC the switch fluorescence ratio was 1.036 ± 0.004. In the case of CTCGGGTGCG, the switch fluorescence ratio is reported as 0.973 ± 0.071. CTCGGTGGTG gave a switch fluorescence ratio of 0.959 ± 0.024. With CTCGTACGAG the switch fluorescence ratio was 1.02 ± 0.021. CTCGTGAACT gave a switch fluorescence ratio of 1.048 ± 0.0022. CTCGTTATGT was tested, and the switch fluorescence ratio was 0.9782 ± 0.0065. In the case of CTCTAAATGT, the switch fluorescence ratio is reported as 1.11 ± 0.016. Sequence CTCTAATCGG has a switch fluorescence ratio of 1.018 ± 0.0097. For CTCTAATGAA, the switch fluorescence ratio was 0.992 ± 0.037. CTCTAGGGGC gave a switch fluorescence ratio of 1.128 ± 0.0065. With CTCTAGGGGG the switch fluorescence ratio was 1.05 ± 0.028. CTCTATGTTA showed a switch fluorescence ratio of 1.02 ± 0.076. CTCTCACTGC showed a switch fluorescence ratio of 1.32 ± 0.05. With CTCTCCTTGT the switch fluorescence ratio was 1.3 ± 0.38. CTCTGGACTA gave a switch fluorescence ratio of 1.11 ± 0.017. Work on CTCTGGGATG yielded a switch fluorescence ratio of 1.01 ± 0.064. For CTCTGGGCTT, the switch fluorescence ratio was 0.99826 ± 8.3e-05. CTCTGGGGGA gave a switch fluorescence ratio of 1.05 ± 0.068. CTCTGGTGGC gave a switch fluorescence ratio of 1.08 ± 0.054. In the case of CTCTGTGCTC, the switch fluorescence ratio is reported as 1.35 ± 0.083. CTCTGTTTAG gave a switch fluorescence ratio of 1.48 ± 0.53. CTCTGTTTGC showed a switch fluorescence ratio of 1.803 ± 0.0037. Work on CTCTTACGTT yielded a switch fluorescence ratio of 0.98 ± 0.023. Work on CTCTTAGCTA yielded a switch fluorescence ratio of 1.17 ± 0.019. Work on CTCTTCTCTT yielded a switch fluorescence ratio of 0.9657 ± 0.0088. Sequence CTCTTGGGGA has a switch fluorescence ratio of 1.02 ± 0.0057. For CTGAACGAAT, the switch fluorescence ratio was 1.43 ± 0.034. For CTGAACTCGT, the switch fluorescence ratio was 1.03 ± 0.018. Sequence CTGAAGCTAG has a switch fluorescence ratio of 2.27 ± 0.0024. In the case of CTGAAGGATC, the switch fluorescence ratio is reported as 1.05 ± 0.035. In the case of CTGAAGGGCG, the switch fluorescence ratio is reported as 0.979 ± 0.044. CTGAATACGG gave a switch fluorescence ratio of 1.115 ± 0.01. For CTGAATGCGT, the switch fluorescence ratio was 0.9844 ± 0.0084. CTGAATGGGT gave a switch fluorescence ratio of 0.998 ± 0.016. With CTGACAAGGC the switch fluorescence ratio was 1.61 ± 0.27. In the case of CTGACAGCGG, the switch fluorescence ratio is reported as 1.06 ± 0.033. In the case of CTGAGCGATG, the switch fluorescence ratio is reported as 1.063 ± 0.0078. For CTGAGGGGCC, the switch fluorescence ratio was 0.951 ± 0.071. Sequence CTGAGGGGGA has a switch fluorescence ratio of 1.09 ± 0.17. CTGAGGGGGT showed a switch fluorescence ratio of 0.991 ± 0.066. For CTGAGTGCTT, the switch fluorescence ratio was 0.991 ± 0.0067. CTGAGTGGC showed a switch fluorescence ratio of 0.9639 ± 0.0063. CTGAGTTGTT showed a switch fluorescence ratio of 0.989 ± 0.08. With CTGATAAAGG the switch fluorescence ratio was 0.969 ± 0.048. CTGATATAAG showed a switch fluorescence ratio of 1.03 ± 0.017. CTGATATTGG gave a switch fluorescence ratio of 0.994 ± 0.015. CTGATGGGCT showed a switch fluorescence ratio of 0.972 ± 0.029. In the case of CTGATGGGG, the switch fluorescence ratio is reported as 0.986 ± 0.021. CTGATGTCGC showed a switch fluorescence ratio of 1.074 ± 0.0034. CTGATGTGTC was tested, and the switch fluorescence ratio was 0.996 ± 0.055. CTGATTTAGC was tested, and the switch fluorescence ratio was 1.05 ± 0.043. Sequence CTGCACATGG has a switch fluorescence ratio of 1.7 ± 0.21. Sequence CTGCATCCGG has a switch fluorescence ratio of 1.314 ± 0.011. CTGCATGACG was tested, and the switch fluorescence ratio was 1.01 ± 0.047. CTGCCCGCCC gave a switch fluorescence ratio of 1.3 ± 0.12. With CTGCGAGGGG the switch fluorescence ratio was 1 ± 0.016. For CTGCGGGATT, the switch fluorescence ratio was 1.02 ± 0.026. CTGCGGGGAG showed a switch fluorescence ratio of 1.03 ± 0.037. CTGCTAGTTT was tested, and the switch fluorescence ratio was 0.983 ± 0.016. CTGCTGAGCA gave a switch fluorescence ratio of 1.03 ± 0.029. Sequence CTGCTTCCCG has a switch fluorescence ratio of 1.15 ± 0.041. Sequence CTGGAAATTG has a switch fluorescence ratio of 1.03 ± 0.036. For CTGGAACGTC, the switch fluorescence ratio was 0.989 ± 0.026. With CTGGAAGGGT the switch fluorescence ratio was 1 ± 0.03. With CTGGAATGTT the switch fluorescence ratio was 1.012 ± 0.01.
